Experimental data published in patent US20220185894A1 (F STAR THERAPEUTICS, published 2022).
Where “and” joins values, the source holds several entries; their conditions need not be identical. Identical values can stand only once.

Assays:
[1] = biological target: T1, human PD-L1 Fc (R&D Systems, 156-B7) (human, UniProt Q9NZQ7 19-239); experiment: SPR, BIAcore T200; mAb2 captured on Protein L, PD-L1 Fc injected
T1 construct: Bought protein; not shown: Fc tag of the bought fusion protein
Protocol: (§1) Protein L (Thermo, 21189) was immobilized on flow cells 1 and 2 of a Series S CM5 chip (GE Healthcare, BR-1005-30) by amine coupling (GE Healthcare, BR-1000-50) to a surface density of 2000 RU by following the manufacturer's instructions for the BIAcore T200 instrument. […] The association time was 3 min and the dissociation time was 6 min. Running buffer was HBS-P (GE Healthcare, BR-1003-68). Both flow cells were regenerated by injecting 10 mM sodium hydroxide (NaOH) at a flow rate of 100 μl/min for 20 seconds. The data were analysed by double referencing against the blank flow cell.
(§2) The binding kinetics were fit with a 1:1 Langmuir model to generate binding association (kₐ) and dissociation (kd) rates. Equilibrium binding constants (KD) were calculated by dividing the dissociation rate by the association rate for each sample. Data analysis was performed with BiaEvaluation software version 3.2.

[2] = biological target: T2, recombinant Fc-tagged human LAG-3 (R&D Systems, 2319-L3-050) (human, UniProt P18627 23-450); experiment: SPR, BIAcore T200; mAb2 captured on Protein L, human LAG-3 Fc injected
T2 construct: Bought protein; also called LAG-3 Fc; human LAG-3-Fc; not shown: Fc tag of the bought fusion protein
T2 sequence: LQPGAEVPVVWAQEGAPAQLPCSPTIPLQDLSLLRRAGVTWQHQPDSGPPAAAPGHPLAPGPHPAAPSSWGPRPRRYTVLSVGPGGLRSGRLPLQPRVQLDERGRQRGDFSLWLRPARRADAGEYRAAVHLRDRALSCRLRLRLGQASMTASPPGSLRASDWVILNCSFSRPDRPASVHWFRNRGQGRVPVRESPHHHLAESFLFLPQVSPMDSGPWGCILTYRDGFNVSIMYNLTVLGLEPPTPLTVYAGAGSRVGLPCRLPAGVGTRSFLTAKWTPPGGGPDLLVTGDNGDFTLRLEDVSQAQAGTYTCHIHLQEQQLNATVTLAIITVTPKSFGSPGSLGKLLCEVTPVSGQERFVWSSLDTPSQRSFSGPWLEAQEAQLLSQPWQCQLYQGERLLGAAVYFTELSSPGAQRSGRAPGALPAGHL
Protocol: as §1, §2

[3] = biological target: T3, cynomolgus PD-L1 expressed on cells (cynomolgus monkey, UniProt Q9NZQ7 19-290 (human entry)); experiment: flow cytometry on HEK cells expressing cynomolgus PD-L1
T3 construct: also called cPD-L1; cyno PD-L1
Protocol: HEK cells expressing human or cynomolgus PD-L1 grown in DMEM (Life Technologies, 61965-026) containing 10% FBS (Life Technologies, 10270-1-6), 100 μg/ml Hygromycin B (Melford Laboratories Ltd, Z2475), 15 μg/ml Blasticidin (Melford Laboratories Ltd, B1105) and 1 μg/ml Doxycyclin (Sigma, D9891) were detached from tissue culture flasks using cell dissociation buffer (Life Technologies, 13151-014) and seeded in V-bottom 96-well plates (Costar, 3897) at 2×10⁵ cells/well. The plates were centrifuged at 1500 rpm for 3 min at 4° C. to pellet the cells. A dilution series of the mAb² (or control mAb) was incubated with the cells in a 100 μl volume for 1 h at 4° C. The plates were washed and secondary antibody (Anti-human Fc-488, Jackson ImmunoResearch, 109-546-098) was diluted 1:1000 in PBS and 100 μl was added to the cells for 30 min at 4° C. (plates were kept in the dark). The plates were washed then cells were resuspended in 100 μl PBS containing 1 μg/ml DAPI (Biotium, 40043). The plates were read using Canto II flow cytometer (BD Bioscience). Dead cells were excluded and the fluorescence in the FITC channel (488 nm/530/30) was measured. The data was fit using log (agonist) vs response in GraphPad Prism Software. The plates were read on a BD FACSCanto II cytometer (BD Biosciences) and the data analysed using FlowJo.

T1 sequence (Q9NZQ7 19-239 limits assumed): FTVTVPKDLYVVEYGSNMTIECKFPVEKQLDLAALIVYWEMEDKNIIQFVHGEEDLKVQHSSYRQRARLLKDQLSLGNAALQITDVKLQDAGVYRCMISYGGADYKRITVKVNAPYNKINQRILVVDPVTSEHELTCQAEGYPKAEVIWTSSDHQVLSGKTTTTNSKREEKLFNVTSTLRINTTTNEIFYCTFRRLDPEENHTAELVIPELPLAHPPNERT
T3 sequence (Q9NZQ7 other isoform, or with tags, fused parts or gaps limits assumed): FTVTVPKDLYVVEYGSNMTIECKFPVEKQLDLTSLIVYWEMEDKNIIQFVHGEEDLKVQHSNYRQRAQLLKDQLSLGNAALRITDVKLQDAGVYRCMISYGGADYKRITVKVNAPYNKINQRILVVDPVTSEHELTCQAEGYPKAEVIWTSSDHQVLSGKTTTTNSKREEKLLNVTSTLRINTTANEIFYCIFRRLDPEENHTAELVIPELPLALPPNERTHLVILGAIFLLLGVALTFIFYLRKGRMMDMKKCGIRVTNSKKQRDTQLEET

Kd [1]: 1 nM
koff [1]: 0.00039 s⁻¹
kon [1]: 380000 M⁻¹ s⁻¹
Kd [2]: 0.056 nM
koff [2]: 0.00035 s⁻¹
kon [2]: 6.3e+06 M⁻¹ s⁻¹
EC50 [3]: 1.67 nM and 1.81 nM
B1: anti-human LAG-3/PD-L1 mAb2 FS18-7-9/84G09 with LALA mutation (bispecific antibody, human IgG1, kappa, L234A L235A)
heavy: EVQLVESGGGLVQPGRSLRLSCAASGFTFDDYAMHWVRQTPGKGLEWVSGISWKSNIIGYADSVKGRFTISRDNAKNSLYLQMNSLRAEDTALYYCARDITGSGSYGWFDPWGQGTLVTVSSASTKGPSVFPLAPSSKSTSGGTAALGCLVKDYFPEPVTVSWNSGALTSGVHTFPAVLQSSGLYSLSSVVTVPSSSLGTQTYICNVNHKPSNTKVDKKVEPKSCDKTHTCPPCPAPEAAGGPSVFLFPPKPKDTLMISRTPEVTCVVVDVSHEDPEVKFNWYVDGVEVHNAKTKPREEQYNSTYRVVSVLTVLHQDWLNGKEYKCKVSNKALPAPIEKTISKAKGQPREPQVYTLPPSWDEPWGEDVSLTCLVKGFYPSDIAVEWESNGQPENNYKTTPPVLDSDGSFFLYSKLTVPYDRWVWPDEFSCSVMHEALHNHYTQKSLSLSPG
light: DIQMTQSPSSLSASVGDRVTITCRASQSISSYLNWYQQKPGKAPKPLIYVASSLQSGVPSSFSGSGSGTDFTLTISSLQPEDFATYYCQQSYSNPITFGQGTRLEIKRTVAAPSVFIFPPSDEQLKSGTASVVCLLNNFYPREAKVQWKVDNALQSGNSQESVTEQDSKDSTYSLSSTLTLSKADYEKHKVYACEVTHQGLSSPVTKSFNRGEC
notes: also called FS18-7-09/84G09LALA; FS18-7-9/84G09 LALA
